Reference: patent US20230332164A1 (SYNLOGIC OPERATING, published 2023)

T1: recombinant SIRPα (Rndsystems) (mouse, UniProt P97797 32-373, limits assumed)
T1 construct: also called recombinant SIRPalpha; recombinant mSIRPα
T1 sequence (looked up): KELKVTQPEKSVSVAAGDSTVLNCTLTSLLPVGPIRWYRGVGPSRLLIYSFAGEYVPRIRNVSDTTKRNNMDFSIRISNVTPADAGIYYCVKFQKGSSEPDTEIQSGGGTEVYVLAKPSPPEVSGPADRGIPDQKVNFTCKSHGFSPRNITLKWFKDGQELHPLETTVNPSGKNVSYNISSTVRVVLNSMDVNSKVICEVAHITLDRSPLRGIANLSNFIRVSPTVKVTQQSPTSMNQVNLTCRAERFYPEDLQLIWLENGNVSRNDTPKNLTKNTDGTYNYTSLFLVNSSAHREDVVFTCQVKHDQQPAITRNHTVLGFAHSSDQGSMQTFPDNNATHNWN

B1: anti-mCD47 scFv, secreted by SYN3161 (scFv)
scFv: QVKLLQSGAALVKPGASVKMSCQASGYSFTDYWVTWVKQSHGQSLEWIGEIYPSNTVTNFNDNFKGKATLTVDKSTSTAYMELSRLTSEDSAIYYCTRIGNSGYRVGWFIYWGQGTLVTVLSGGGGSGGGGSGGGGSDTVLTQSPALAVSPGERVTISCKASESVSSHMHWYQQKPGQQPKLLIYKASNLASGVPARFSGSGSGTDFTLTIDPVEADDTATYFCQQGWNGPFTFGAGTRLELKRADAAGSGELGGSGKPIPNPLLGLDSTGSGHHHHHH
B2: CD47 on mouse CT26 cells (receptor, UniProt Q61735 19-303, looked up)
chain: QLLFSNVNSIEFTSCNETVVIPCIVRNVEAQSTEEMFVKWKLNKSYIFIYDGNKNSTTTDQNFTSAKISVSDLINGIASLKMDKRDAMVGNYTCEVTELSREGKTVIELKNRTVSWFSPNEKILIVIFPILAILLFWGKFGILTLKYKSSHTNKRIILLLVAGLVLTVIVVVGAILLIPGEKPVKNASGLGLIVISTGILILLQYNVFMTAFGMTSFTIAILITQVLGYVLALVGLCLCIMACEPVHGPLLISGLGIIALAELLGLVYMKFVASNQRTIQPPRNR
notes: whole, on cells; also called CD47 on CT26 cells; murine CD47 on CT26 cells
B3: mCV1SIRPα, secreted by SYN3159 (receptor)
chain: VDYKDDDDKQLGGSEEELQIIQPDKSVLVAAGETATLRCTITSLFPVGPIQWFRGAGPGRVLIYNQRQGPFPRVTTVSDTTKRNNMDFSIRIGNITPADAGTYYCIKFRKGSPDDVEFKSGAGTELSVRAKPSGSGELGGSGKPIPNPLLGLDSTGSGHHHHHH
notes: also called PhoA-FLAG-CV1sirpα-V5-HIS
B4: mCD40L2 (112-260), secreted by SYN3367 (ligand)
chain: VDYKDDDDKQLGGGMQRGDEDPQIAAHVVSEANSNAASVLQWAKKGYYTMKSNLVMLENGKQLTVKREGLYYVYTQVTFCSNREPSSQRPFIVGLWLKPSSGSERILLKAANTHSSSQLCEQQSVHLGGVFELQAGASVFVNVTEASQVIHRVGFSSFGLLKLKGELNSKLEGKPIPNPLLGLDSTDPNSSSVDHHHHHH
B5: mFD6x2SIRPα, secreted by SYN3160 (receptor)
chain: VDYKDDDDKQLGGSEEEVQIIQPDKSVSVAAGESAILHCTITSLFPVGPIQWFRGAGPARVLIYNQRQGPFPRVTTISETTRRENMDFSISISNITPADAGTYYCIKFRKGSPDTEFKSGAGTELSVRAKPSGGGGSGGGGSEEEVQIIQPDKSVSVAAGESAILHCTITSLFPVGPIQWFRGAGPARVLIYNQRQGPFPRVTTISETTRRENMDFSISISNITPADAGTYYCIKFRKGSPDTEFKSGAGTELSVRAKPSGSGELGGSGKPIPNPLLGLDSTGSGHHHHHH
notes: also called mFD62xSIRPα; FD1x2SIRPα
B6: WT mSIRPα (32-373), secreted by SYN2996 (receptor)
chain: VDYKDDDDKQLGGGKELKVTQPEKSVSVAAGDSTVLNCTLTSLLPVGPIKWYRGVGQSRLLIYSFTGEHFPRVTNVSDATKRNNMDFSIRISNVTPEDAGTYYCVKFQKGPSEPDTEIQSGGGTEVYVLAKPSPPEVSGPADRGIPDQKVNFTCKSHGFSPRNITLKWFKDGQELHHLETTVNPSGKNVSYNISSTVRVVLNSMDVHSKVICEVAHITLDRSPLRGIANLSNFIRVSPTVKVTQQSPTSMNQVNLTCRAERFYPEDLQLIWLENGNVSRNDTPKNLTKNTDGTYNYTSLFLVNSSAHREDVVFTCQVKHDQQPAITRNHTVLGLAHSSDQGSMQTFPGNNATHNWNKGELNSKLEGKPIPNPLLGLDSTDPNSSSVDHHHHHH
B7: mCD40L1 (47-260), secreted by SYN3366 (ligand)
chain: VDYKDDDDKQLGGGHRRLDKVEEEVNLHEDFVFIKKLKRCNKGEGSLSLLNCEEMRRQFEDLVKDITLNKEEKKENSFEMQRGDEDPQIAAHVVSEANSNAASVLQWAKKGYYTMKSNLVMLENGKQLTVKREGLYYVYTQVTFCSNREPSSQRPFIVGLWLKPSSGSERILLKAANTHSSSQLCEQQSVHLGGVFELQAGASVFVNVTEASQVIHRVGFSSFGLLKLKGELNSKLEGKPIPNPLLGLDSTDPNSSSVDHHHHHH

Columns and labels:
IgG (control coating) [1] = test: ELISA, IgG-coated plate, bacterial supernatant
[2] = target: T1, recombinant SIRPα (Rndsystems); test: competition flow cytometry on CT26 cells
Procedure: Cells were spun down, supernatant was aspirated, pellet was resuspended in 1 ml D-PBS, transferred into chilled assay tubes (1×10\hat{ }6 cells), and washed 3 times in D-PBS. Cells were resuspended in D-PBS with 0.5% BSA, to which the 10 jut of the supernatant (10× concentrated) were added and incubated for 1 hour at 4 C. Supernatant from SYN1557 was used as a baseline negative control. Cells were then resuspended in 0.5 ml PBS, diluted to proper concentration and analyzed on a flow cytometer.

CD47 on mouse CT26 cells = target: B2; test: flow cytometry on CT26 cells, 10x concentrated supernatant
IgG (control coating) [3] = test: ELISA, IgG-coated plate, clarified bacterial supernatant

## B1
IgG (control coating) [1]
  ELISA signal (unit not given): 0.067

## B2
[2]
  binding result: binds

## B3
CD47 on mouse CT26 cells
  binding result: binds

## B4
IgG (control coating) [3]
  ELISA signal (unit not given): 0.052

## B5
CD47 on mouse CT26 cells
  binding result: binds

## B6
IgG (control coating) [1]
  ELISA signal (unit not given): 0.056

## B7
IgG (control coating) [3]
  ELISA signal (unit not given): 0.052
